Measurements reported in patent publication US10196442B2, “Methods of inhibiting growth of a colon cancer tumor in a subject by administering monoclonal antibodies to G protein-coupled receptor 49 (GPR49)” (Bionomics Inc., priority 2011, dated 2019).

What was measured:
GPR49-Fc = target: T1, GPR49-Fc (Homo sapiens, UniProt O75473); assay: Solution affinity surface plasmon resonance of RSPO-1 on GPR49-Fc; assay type: binding; conditions: solution affinity SPR
T1 construct: FLAG (C)
Description: Methods: Binding of RSPO to GPR49 was analyzed using solution affinity surface plasmon resonance (Day E S, et al. Biochemistry. 2005 Feb. 15; 44(6):1919-31). The method utilizes conditions of so-called “mass-transport-limited” binding, in which the initial rate of ligand binding (protein binding to the senor chip) is proportional to the concentration of ligand in solution (BIApplications Handbook (1994) Chapter 6: Concentration measurement, pp 6-1-6-10, Pharmacia Biosensor AB). Under these conditions, binding of the soluble analyte (protein flowing over chip surface) to the immobilized protein on the chip is fast compared to the diffusion of the analyte into the dextran matrix on the chip surface. Therefore, the diffusion properties of the analyte and the concentration of analyte in solution flowing over the chip surface determine the rate at which analyte binds to the chip. In this experiment, the concentration of free RSPO-1 in solution is determined by the initial rate of binding to a CMS Biacore chip containing immobilized GPR49-Fc. Into these RSPO-1 solutions were titrated the competing GPR49-Fc.

[1] = test system: NIH 3T3 fibroblast cells stably transfected with GPR49; assay: Cell Titer Glo proliferation of GPR49-3T3 cells; assay type: cell-based

T1 sequence (O75473 with tags, fused parts or gaps): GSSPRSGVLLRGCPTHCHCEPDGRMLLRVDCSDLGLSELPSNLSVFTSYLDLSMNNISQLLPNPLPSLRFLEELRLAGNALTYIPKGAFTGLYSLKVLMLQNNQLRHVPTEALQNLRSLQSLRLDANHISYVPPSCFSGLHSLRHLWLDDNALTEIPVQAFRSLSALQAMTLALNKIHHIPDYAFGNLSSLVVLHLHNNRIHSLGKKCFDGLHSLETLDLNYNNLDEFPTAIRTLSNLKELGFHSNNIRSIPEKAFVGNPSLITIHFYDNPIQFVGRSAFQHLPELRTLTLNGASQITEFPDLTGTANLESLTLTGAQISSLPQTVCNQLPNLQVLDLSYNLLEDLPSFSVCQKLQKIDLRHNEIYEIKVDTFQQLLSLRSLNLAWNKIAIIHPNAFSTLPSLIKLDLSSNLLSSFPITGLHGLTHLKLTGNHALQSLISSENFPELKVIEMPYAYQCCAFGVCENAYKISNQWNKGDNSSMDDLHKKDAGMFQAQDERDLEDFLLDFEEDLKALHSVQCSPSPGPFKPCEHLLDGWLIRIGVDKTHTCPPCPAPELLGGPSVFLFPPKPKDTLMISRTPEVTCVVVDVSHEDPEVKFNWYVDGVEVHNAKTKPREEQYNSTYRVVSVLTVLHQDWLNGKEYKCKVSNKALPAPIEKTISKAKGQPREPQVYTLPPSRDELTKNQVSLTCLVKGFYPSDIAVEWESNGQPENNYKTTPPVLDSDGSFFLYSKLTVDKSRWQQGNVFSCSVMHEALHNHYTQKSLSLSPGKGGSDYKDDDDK

B1: R-spondin 1: R-spondin family ligand purchased from R& D systems (protein, UniProt Q2MKA7 21-263, looked up)
R-spondin-1: SRGIKGKRQRRISAEGSQACAKGCELCSEVNGCLKCSPKLFILLERNDIRQVGVCLPSCPPGYFDARNPDMNKCIKCKIEHCEACFSHNFCTKCKEGLYLHKGRCYPACPEGSSAANGTMECSSPAQCEMSEWSPWGPCSKKQQLCGFRRGSEERTRRVLHAPVGDHAACSDTKETRRCTVRRVPCPEGQKRRKGGQGRRENANRNLARKESKEAGAGSRRRKGQQQQQQQGTVGPLTSAGPA
- binding profile to GPR49-Fc (GPR49-Fc): bi-phasic binding profile
- increase in proliferation ([1]; GPR49-3T3 clone 28, compared to Stanniocalcin): 4 fold
- increase in cell proliferation ([1]; GPR49-3T3 clone 50, 2 days, serum free, compared to Stanniocalcin): 25-40%
